{
  "source": "patent US8629107B2",
  "about": "“Genes and proteins associated with angiogenesis and uses thereof” (National Jewish Health, priority 2005, dated 2014)",
  "molecules": {"B1": {"name": "MAGP-2: secreted glycoprotein (25 kDa); stably expressed in MB114 cells by bicistronic retroviral transduction, Myc-His tagged (protein)", "chain": "QRGDDVPETFTDDPNLVNDPSTDDTALADITPSTDDLAGDKNATAECRDEKFACTRLYSVHRPVRQCVHQSCFTSLRRMYIINNEICSRLVCKEHEAMKDELCRQMAGLPPRRLRRSNYFRLPPCENMNLQRPDGL", "modifications": "left off: small tags and cut ends", "notes": "secreted glycoprotein (25 kDa); stably expressed in MB114 cells by bicistronic retroviral transduction, Myc-His tagged"}, "B2": {"name": "rMAGP-2: recombinant FLAG-tagged MAGP-2 purified from bacterial cell extracts by anti-FLAG chromatography (protein, UniProt Q9QZJ6 29-164, looked up)", "Microfibrillar-associated …": "B1 chain", "modifications": "FLAG tag", "notes": "recombinant FLAG-tagged MAGP-2 purified from bacterial cell extracts by anti-FLAG chromatography"}},
  "key": {"[1]": {"tested_on": "MB114 cells", "experiment": "cell invasion through Matrigel matrices, modified Boyden-chamber assay", "format": "cell-based, murine", "settings": "MB114 cells stably expressing the transgene vs GFP; 48 h", "method": "(§1) The effect putative angiogenic agents had on MB114 cell activities were determined as follows: (i) cell proliferation using a [^3H]thymidine incorporation assay as described (Albig et al, 2006; Albig and Schiemann, 2004; Albig and Schiemann, 2005); (ii) cell invasion through Matrigel matrices using a modified Boyden-chamber assay as described (Albig et al, 2006; Albig and Schiemann, 2004; Albig and Schiemann, 2005); (iii) p38 MAPK phosphorylation using immunoblot analyses as described (Albig et al, 2006; Albig and Schiemann, 2004; Albig and Schiemann, 2005); (iv) angiogenic sprouting in rat tail collagen matrices as described (Albig et al, 2006; Albig and Schiemann, 2004); and (v) Hes1- and SBE-driven luciferase reporter gene assays as described (Albig et al, 2006; Albig and Schiemann, 2004; Albig and Schiemann, 2005).\nFIG. 1A show results from an experiment in which serum-starved MB114 cells, stably expressing either GFP or various putative angiogenic agents, were stimulated in the absence or presence of either bFGF (50 ng/ml) or EGF (10 ng/ml) for 24 h at 37° C. Differences in MB114 cell DNA synthesis was determined by measuring [^3H]thymidine incorporation into cellular DNA. […] In this experiment, invasion of MB114 cells expressing either GFP or various putative angiogenic agents through synthetic basement membranes was determined over 48 h using a modified Boyden-chamber assay."}, "[2]": {"tested_on": "p38 MAPK", "experiment": "p38 MAPK phosphorylation by immunoblot analyses", "format": "cell-based, murine", "settings": "serum-starved MB114 cells expressing the transgene; bFGF 50 ng/ml or EGF 10 ng/ml, 0-15 min", "method": "as §1\nThe inventors' previous studies have associated stimulation of p38 MAPK activity with angiogenesis of MB114 cells and, conversely, inhibition of p38 MAPK activity with angiostasis of MB114 cells (Albig et al, 2006; Albig and Schiemann, 2004; Albig and Schiemann, 2005). […] The phosphorylation status of p38 MAPK was determined by immunoblotting whole cell lysates with phospho-specific p38 MAPK antibodies (p38-P). Differences in protein loading were monitored by reprobing stripped membranes with anti-p38 MAPK polyclonal antibodies (p38)."}, "[3]": {"tested_on": "vessel formation and infiltration into Matrigel plugs", "experiment": "Matrigel plug implantation assay", "format": "in vivo, C57BL/6 mice", "settings": "1 μg/ml with bFGF 50 ng/ml vs bFGF alone; subcutaneous, C57BL/6 mice, day 10", "method": "The effect of MAGP-2 on vessel formation and infiltration into Matrigel plugs implanted into genetically normal mice was determined as described (Albig et al, 2006). Briefly, phenol red-free Matrigel (BD biosciences, Bedford, Mass.) was mixed with PBS (diluent), bFGF (50 or 300 ng/ml; R&D Systems, Minneapolis, Minn.), or recombinant MAGP-2 (1 μg/ml) together with bFGF (50 ng/ml), and the resulting mixtures were injected twice subcutaneously in the ventral groin area (400 μl/injection) of C57BL/6 mice. The mice were sacrificed 10 days post-implantation and the Matrigel plugs were dissected, fixed overnight in 10% formalin, and sectioned in the National Jewish Histology Laboratory. Afterward, Masson's trichrome staining was performed to visualize infiltrating vessels, which were quantified under a light microscope by determining the average number of vessels present in 5 random fields (200× magnification). Only those fields that contained at least one vessel in the area underlying the skin were tallied. Two mice were used per experimental condition and this experiment was performed three times in its entirety. All animal studies were performed according to protocol procedures approved by the Animal Care and Use Committee at National Jewish Medical and Research Center.\nThe inventors tested this hypothesis by utilizing the Matrigel plug implantation assay, which monitors the ability of various angiogenic agents to alter vessel formation and infiltration into Matrigel plugs implanted subcutaneously into normal mice. […] MAGP-2 purity was monitored by coomassie staining, and by immunoblotting with anti-FLAG M2 monoclonal antibodies (FIG. 2A; right panel). rMAGP-2 (1 μg/ml) stimulated angiogenic sprouting of quiescent MB114 cell monolayers (FIG. 2A; left panel). […] Afterward, the Matrigel plugs were fixed, sectioned, and stained with Masson's trichrome to visualize infiltrating blood vessels (FIG. 2B; right panels; arrows denote blood vessels), which were quantified by manual counting under a light microscope. […]"}},
  "data": [
    {"molecule": "B1", "values": [
      {"measurement": "MB114 cell invasion through synthetic basement membranes", "setting": "[1]", "result": "significantly induced"},
      {"measurement": "p38 MAPK phosphorylation", "setting": "[2]", "result": "significantly enhanced"}
    ]},
    {"molecule": "B2", "values": [
      {"measurement": "development and infiltration of vessels into Matrigel plugs", "setting": "[3]", "result": "significantly increased"}
    ]}
  ]
}
